Results: paper PMC11969024 (2025)

B1: peptide HD2 (from tick evasin EVA4) / CCL4 (biotinylated, synthetic) (parent complex)
chain 1: EEDDYTAYAPLTCYFT
chain 2: APMGSDPPTACCFSYTARKLPRNFVVDYYETSSLCSQPAVVFQTKRSKQVCADPSESWVQEYVYDLELN

Variants of: B1

**Q.** How did the enrichment turn out when chain 1 E1H was run?
**A.** -1.57 log2 (difference from the parental peptide)

**Q.** With chain 1 D4H as the variant, how does the enrichment read?
**A.** -5.75 log2 (difference from the parental peptide)

**Q.** For chain 1 D3W, which enrichment is on record?
**A.** -2.32 log2 (difference from the parental peptide)

**Q.** For chain 1 E1D, which enrichment is on record?
**A.** 1.99 log2 (difference from the parental peptide)

**Q.** With chain 1 E1K as the variant, how does the enrichment read?
**A.** -2.64 log2 (difference from the parental peptide)

**Q.** With chain 1 F15A as the variant, how does the enrichment read?
**A.** 1.49 log2 (difference from the parental peptide)

**Q.** For chain 1 T6Y, which enrichment is on record?
**A.** -1.54 log2 (difference from the parental peptide)

**Q.** Which enrichment does the source give for chain 1 E2W here?
**A.** -1.18 log2 (difference from the parental peptide)

**Q.** chain 1 L11W was tested. Which enrichment did it give?
**A.** -0.0529 log2 (difference from the parental peptide)

**Q.** With chain 1 Y5I as the variant, how does the enrichment read?
**A.** -5.08 log2 (difference from the parental peptide)

**Q.** How did the enrichment turn out when chain 1 T16S was run?
**A.** 1.17 log2 (difference from the parental peptide)

**Q.** chain 1 E1G was tested. Which enrichment did it give?
**A.** -0.0396 log2 (difference from the parental peptide)

**Q.** chain 1 D4M was tested. Which enrichment did it give?
**A.** -3.8 log2 (difference from the parental peptide)

**Q.** chain 1 E1N was tested. Which enrichment did it give?
**A.** -0.413 log2 (difference from the parental peptide)

**Q.** For chain 1 E2Q, which enrichment is on record?
**A.** -1.88 log2 (difference from the parental peptide)

**Q.** chain 1 Y8D was tested. Which enrichment did it give?
**A.** -2.3 log2 (difference from the parental peptide)

**Q.** How did the enrichment turn out when chain 1 D4W was run?
**A.** -2.51 log2 (difference from the parental peptide)

**Q.** Which enrichment does the source give for chain 1 C13D here?
**A.** -8.73 log2 (difference from the parental peptide)

**Q.** chain 1 P10S was tested. Which enrichment did it give?
**A.** -7.76 log2 (difference from the parental peptide)

**Q.** How did the enrichment turn out when chain 1 A7S was run?
**A.** 1.01 log2 (difference from the parental peptide)

**Q.** With chain 1 T6A as the variant, how does the enrichment read?
**A.** 1.9 log2 (difference from the parental peptide)

**Q.** For chain 1 L11R, which enrichment is on record?
**A.** 1.19 log2 (difference from the parental peptide)

**Q.** For chain 1 T16G, which enrichment is on record?
**A.** 1.59 log2 (difference from the parental peptide)

**Q.** Which enrichment does the source give for chain 1 D3G here?
**A.** -2.44 log2 (difference from the parental peptide)

**Q.** chain 1 D3E was tested. Which enrichment did it give?
**A.** 1.01 log2 (difference from the parental peptide)

**Q.** chain 1 T12L was tested. Which enrichment did it give?
**A.** 3.18 log2 (difference from the parental peptide)

**Q.** For chain 1 A7C, which enrichment is on record?
**A.** -7.41 log2 (difference from the parental peptide)

**Q.** Which enrichment does the source give for chain 1 T6H here?
**A.** -0.386 log2 (difference from the parental peptide)

**Q.** Which enrichment does the source give for chain 1 A7R here?
**A.** 0.829 log2 (difference from the parental peptide)

**Q.** With chain 1 T6M as the variant, how does the enrichment read?
**A.** -1.2 log2 (difference from the parental peptide)

**Q.** chain 1 E1W was tested. Which enrichment did it give?
**A.** -3.15 log2 (difference from the parental peptide)

**Q.** chain 1 L11A was tested. Which enrichment did it give?
**A.** 0.289 log2 (difference from the parental peptide)

**Q.** With chain 1 T12M as the variant, how does the enrichment read?
**A.** 2.93 log2 (difference from the parental peptide)

**Q.** How did the enrichment turn out when chain 1 E1F was run?
**A.** -2.68 log2 (difference from the parental peptide)

**Q.** For chain 1 D3Q, which enrichment is on record?
**A.** -3.56 log2 (difference from the parental peptide)

**Q.** How did the enrichment turn out when chain 1 T12G was run?
**A.** -4.11 log2 (difference from the parental peptide)

**Q.** chain 1 F15V was tested. Which enrichment did it give?
**A.** 1.4 log2 (difference from the parental peptide)

**Q.** chain 1 D4I was tested. Which enrichment did it give?
**A.** -3.77 log2 (difference from the parental peptide)

**Q.** chain 1 A7Y was tested. Which enrichment did it give?
**A.** -1.83 log2 (difference from the parental peptide)

**Q.** Which enrichment does the source give for chain 1 P10V here?
**A.** -9.95 log2 (difference from the parental peptide)

**Q.** chain 1 T6I was tested. Which enrichment did it give?
**A.** -5.92 log2 (difference from the parental peptide)

**Q.** chain 1 E1T was tested. Which enrichment did it give?
**A.** -0.507 log2 (difference from the parental peptide)

**Q.** How did the enrichment turn out when chain 1 Y8H was run?
**A.** -0.426 log2 (difference from the parental peptide)

**Q.** Which enrichment does the source give for chain 1 E2V here?
**A.** -1.26 log2 (difference from the parental peptide)

**Q.** Which enrichment does the source give for chain 1 D3L here?
**A.** -3.31 log2 (difference from the parental peptide)

**Q.** chain 1 F15M was tested. Which enrichment did it give?
**A.** 1.08 log2 (difference from the parental peptide)

**Q.** How did the enrichment turn out when chain 1 D4R was run?
**A.** -5.66 log2 (difference from the parental peptide)

**Q.** Which enrichment does the source give for chain 1 T6D here?
**A.** 3.6 log2 (difference from the parental peptide)

**Q.** For chain 1 Y14T, which enrichment is on record?
**A.** -1.65 log2 (difference from the parental peptide)

**Q.** Which enrichment does the source give for chain 1 D3V here?
**A.** -3.36 log2 (difference from the parental peptide)

**Q.** For chain 1 A7E, which enrichment is on record?
**A.** 2.68 log2 (difference from the parental peptide)

**Q.** With chain 1 P10F as the variant, how does the enrichment read?
**A.** -7.39 log2 (difference from the parental peptide)

**Q.** For chain 1 L11M, which enrichment is on record?
**A.** 2.23 log2 (difference from the parental peptide)

**Q.** Which enrichment does the source give for chain 1 T16Q here?
**A.** 1.49 log2 (difference from the parental peptide)

**Q.** chain 1 D3M was tested. Which enrichment did it give?
**A.** -2.83 log2 (difference from the parental peptide)

**Q.** How did the enrichment turn out when chain 1 F15P was run?
**A.** 1.32 log2 (difference from the parental peptide)

**Q.** With chain 1 P10L as the variant, how does the enrichment read?
**A.** -9.07 log2 (difference from the parental peptide)

**Q.** How did the enrichment turn out when chain 1 Y14I was run?
**A.** -1.56 log2 (difference from the parental peptide)

**Q.** For chain 1 E2N, which enrichment is on record?
**A.** -2.2 log2 (difference from the parental peptide)

**Q.** chain 1 T16Y was tested. Which enrichment did it give?
**A.** -1.43 log2 (difference from the parental peptide)

**Q.** For chain 1 E2M, which enrichment is on record?
**A.** -2.17 log2 (difference from the parental peptide)

**Q.** chain 1 Y5L was tested. Which enrichment did it give?
**A.** -1.57 log2 (difference from the parental peptide)

**Q.** How did the enrichment turn out when chain 1 C13V was run?
**A.** -2.03 log2 (difference from the parental peptide)

**Q.** With chain 1 E1L as the variant, how does the enrichment read?
**A.** -1.55 log2 (difference from the parental peptide)

**Q.** With chain 1 D3A as the variant, how does the enrichment read?
**A.** -2.51 log2 (difference from the parental peptide)

**Q.** With chain 1 T16K as the variant, how does the enrichment read?
**A.** 0.843 log2 (difference from the parental peptide)

**Q.** With chain 1 T12A as the variant, how does the enrichment read?
**A.** 0.00832 log2 (difference from the parental peptide)

**Q.** chain 1 F15G was tested. Which enrichment did it give?
**A.** -2.79 log2 (difference from the parental peptide)

**Q.** Which enrichment does the source give for chain 1 Y5D here?
**A.** -5.03 log2 (difference from the parental peptide)

**Q.** chain 1 D4E was tested. Which enrichment did it give?
**A.** 0.269 log2 (difference from the parental peptide)

**Q.** chain 1 C13Q was tested. Which enrichment did it give?
**A.** -7.94 log2 (difference from the parental peptide)

**Q.** For chain 1 T6P, which enrichment is on record?
**A.** -5.36 log2 (difference from the parental peptide)

**Q.** How did the enrichment turn out when chain 1 A7N was run?
**A.** 0.608 log2 (difference from the parental peptide)

**Q.** How did the enrichment turn out when chain 1 P10W was run?
**A.** -7.42 log2 (difference from the parental peptide)

**Q.** With chain 1 D3F as the variant, how does the enrichment read?
**A.** -2.01 log2 (difference from the parental peptide)
